Series [1] addresses Recombinant human tropoelastin lacking domain 26A (human). The experiment in a line: SPR.
Series [2] shares this target. The experiment in a line: ELISA.
The target of series [3] is Human fibrillin-1 fragment PF2 (human) (UniProt P35555). The experiment in a line: ELISA.
Series [4] concerns the target Full-length human fibulin-5 (residues 42–448) (human) (UniProt Q9UBX5). The experiment in a line: ELISA.
Series [5] has the same target. The experiment in a line: ELISA. This is another data set of the same source.
Series [6] has as its target Human fibrillin-1 N-terminal fragment PF1, encoded by exons 1–11 (residues 31–489) (human) (UniProt P35555). The experiment in a line: ELISA.
For series [7], the target named is PF1 variant with the Marfan mutation T101A (human, UniProt P35555 31-489, T101A). The experiment in a line: ELISA.
Series [8] deals with PF1 variant with the Marfan mutation S115C (human, UniProt P35555 31-489, S115C). The experiment in a line: ELISA.
For series [9], the target named is PF1 variant with the Marfan mutation R62C (human, UniProt P35555 31-489, R62C). The experiment in a line: ELISA.
In series [10] the target is Recombinant human tropoelastin lacking domain 26A (human). The experiment in a line: ELISA. This is another data set of the same source.
Series [11] deals with the molecule itself. The experiment in a line: SEC-MALS.

Where two headings read alike, the source gives them in different places.

Sequence of PF1 variant with the Marfan mutation S115C (P35555 31-489 S115C): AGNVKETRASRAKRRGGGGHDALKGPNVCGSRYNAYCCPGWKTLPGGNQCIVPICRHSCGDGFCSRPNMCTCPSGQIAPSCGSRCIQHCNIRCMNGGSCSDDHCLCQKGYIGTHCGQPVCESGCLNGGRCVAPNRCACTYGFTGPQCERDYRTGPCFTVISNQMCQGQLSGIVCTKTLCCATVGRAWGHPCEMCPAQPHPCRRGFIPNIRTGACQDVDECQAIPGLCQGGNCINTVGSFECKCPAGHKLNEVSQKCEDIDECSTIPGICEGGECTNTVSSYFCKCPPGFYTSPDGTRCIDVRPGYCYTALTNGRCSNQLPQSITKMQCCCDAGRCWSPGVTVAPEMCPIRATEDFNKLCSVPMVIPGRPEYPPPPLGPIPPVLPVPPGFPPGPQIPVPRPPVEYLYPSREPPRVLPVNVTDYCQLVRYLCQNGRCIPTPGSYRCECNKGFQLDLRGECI
Sequence of PF1 variant with the Marfan mutation T101A (P35555 31-489 T101A): as the sequence (P35555 31-489 S115C) above, with T71A, C85S counted along it
Sequence of PF1 variant with the Marfan mutation R62C (P35555 31-489 R62C): as the sequence (P35555 31-489 S115C) above, with R32C, C85S counted along it
Sequence of Human fibrillin-1 fragment PF2 (human) (P35555 45-2731): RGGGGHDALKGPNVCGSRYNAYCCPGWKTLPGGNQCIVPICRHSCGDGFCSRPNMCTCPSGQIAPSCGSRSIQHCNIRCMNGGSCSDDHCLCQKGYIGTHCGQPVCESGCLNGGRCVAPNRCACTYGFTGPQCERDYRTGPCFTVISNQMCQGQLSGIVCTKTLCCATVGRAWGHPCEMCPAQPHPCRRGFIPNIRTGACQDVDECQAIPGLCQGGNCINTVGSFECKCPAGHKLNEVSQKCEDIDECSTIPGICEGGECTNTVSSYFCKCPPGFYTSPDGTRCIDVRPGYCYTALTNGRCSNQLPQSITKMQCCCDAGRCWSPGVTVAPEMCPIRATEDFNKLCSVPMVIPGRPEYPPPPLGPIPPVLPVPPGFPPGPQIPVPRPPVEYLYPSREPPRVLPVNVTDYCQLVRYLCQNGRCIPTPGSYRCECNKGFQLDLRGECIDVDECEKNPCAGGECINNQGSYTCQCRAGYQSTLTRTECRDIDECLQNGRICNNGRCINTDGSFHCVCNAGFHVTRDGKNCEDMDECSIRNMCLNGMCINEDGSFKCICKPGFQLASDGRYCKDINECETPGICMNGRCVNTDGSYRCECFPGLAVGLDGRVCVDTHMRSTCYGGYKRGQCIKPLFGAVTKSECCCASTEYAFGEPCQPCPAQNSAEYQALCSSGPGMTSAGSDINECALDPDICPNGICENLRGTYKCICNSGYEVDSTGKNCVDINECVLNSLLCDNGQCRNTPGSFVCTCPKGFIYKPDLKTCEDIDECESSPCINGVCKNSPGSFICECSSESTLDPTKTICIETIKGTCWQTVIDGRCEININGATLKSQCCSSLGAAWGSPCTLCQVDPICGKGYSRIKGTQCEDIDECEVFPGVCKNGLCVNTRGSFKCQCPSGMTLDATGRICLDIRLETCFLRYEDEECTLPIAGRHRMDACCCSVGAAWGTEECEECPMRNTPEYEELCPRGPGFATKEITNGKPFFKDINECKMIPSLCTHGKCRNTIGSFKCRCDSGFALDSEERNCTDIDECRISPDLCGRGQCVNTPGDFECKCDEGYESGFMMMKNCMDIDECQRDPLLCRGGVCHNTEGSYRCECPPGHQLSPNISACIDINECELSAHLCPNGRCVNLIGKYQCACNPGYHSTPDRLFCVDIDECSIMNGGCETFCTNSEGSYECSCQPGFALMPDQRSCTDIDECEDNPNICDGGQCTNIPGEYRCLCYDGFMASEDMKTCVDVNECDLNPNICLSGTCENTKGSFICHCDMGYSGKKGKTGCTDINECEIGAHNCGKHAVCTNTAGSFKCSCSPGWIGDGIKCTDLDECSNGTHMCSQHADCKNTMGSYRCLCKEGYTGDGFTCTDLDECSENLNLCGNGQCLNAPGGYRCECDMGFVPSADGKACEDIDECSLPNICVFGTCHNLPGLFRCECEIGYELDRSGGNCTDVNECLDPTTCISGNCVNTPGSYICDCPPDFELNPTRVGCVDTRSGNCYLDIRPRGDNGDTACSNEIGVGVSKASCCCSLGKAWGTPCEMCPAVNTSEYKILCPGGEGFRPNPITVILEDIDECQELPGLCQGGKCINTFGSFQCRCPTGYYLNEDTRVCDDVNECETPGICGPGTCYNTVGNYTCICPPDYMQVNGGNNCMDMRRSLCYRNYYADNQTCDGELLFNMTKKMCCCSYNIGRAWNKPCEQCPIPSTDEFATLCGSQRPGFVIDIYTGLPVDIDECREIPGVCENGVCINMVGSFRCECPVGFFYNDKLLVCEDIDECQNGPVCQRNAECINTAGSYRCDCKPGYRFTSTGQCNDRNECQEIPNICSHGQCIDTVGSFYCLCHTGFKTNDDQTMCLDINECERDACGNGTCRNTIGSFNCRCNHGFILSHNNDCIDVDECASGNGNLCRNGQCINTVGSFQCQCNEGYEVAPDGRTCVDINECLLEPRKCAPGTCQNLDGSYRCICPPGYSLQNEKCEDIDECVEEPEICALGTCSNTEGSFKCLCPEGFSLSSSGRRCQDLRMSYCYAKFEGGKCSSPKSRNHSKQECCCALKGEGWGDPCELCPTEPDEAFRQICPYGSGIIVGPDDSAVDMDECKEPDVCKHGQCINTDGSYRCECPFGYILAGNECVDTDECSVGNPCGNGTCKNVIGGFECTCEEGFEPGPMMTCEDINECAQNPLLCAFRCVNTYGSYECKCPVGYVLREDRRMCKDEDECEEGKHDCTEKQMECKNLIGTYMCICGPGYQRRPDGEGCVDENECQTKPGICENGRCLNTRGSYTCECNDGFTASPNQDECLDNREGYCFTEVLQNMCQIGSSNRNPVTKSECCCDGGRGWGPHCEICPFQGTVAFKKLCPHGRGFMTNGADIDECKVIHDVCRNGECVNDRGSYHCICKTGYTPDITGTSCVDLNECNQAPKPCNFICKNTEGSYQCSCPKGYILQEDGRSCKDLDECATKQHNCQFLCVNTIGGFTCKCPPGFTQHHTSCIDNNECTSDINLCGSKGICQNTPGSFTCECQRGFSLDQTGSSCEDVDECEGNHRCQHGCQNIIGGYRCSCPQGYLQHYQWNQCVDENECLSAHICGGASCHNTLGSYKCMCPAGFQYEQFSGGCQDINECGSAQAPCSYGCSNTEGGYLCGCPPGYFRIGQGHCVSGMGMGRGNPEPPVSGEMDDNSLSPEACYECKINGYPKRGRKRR
Sequence of Human fibrillin-1 N-terminal fragment PF1, encoded by exons 1–11 (residues 31–489) (human) (P35555 31-489): as the sequence (P35555 31-489 S115C) above, with C85S counted along it

Turning to “Full-length fibulin-5 with the cutis laxa mutation C217R (from UniProt Q9UBX5 42-448) (natural protein)”, in [1], the Kd is 865 nM, the koff worked out at 0.0046 s⁻¹ and the on-rate (kon) was 8400 M⁻¹ s⁻¹.

With “Full-length fibulin-5 with the cutis laxa mutation S227P (from UniProt Q9UBX5 42-448) (natural protein)”, in series [1], the Kd worked out at 3420 nM, the koff worked out at 0.0093 s⁻¹ and the kon amounted to 20000 M⁻¹ s⁻¹.

On to “Fibulin-5 domain pair F5-E4+5 (residues 207–287) (from UniProt Q9UBX5 207-287) (domain or fragment)”, for which the Kd in series [2] turned out to be 452 nM.

“Full-length human fibulin-4 (residues 26–418) (from UniProt O95967 26-443) (natural protein)”: the Kd in [2] was 131 nM; in series [3], 194 nM.

Regarding “Human full-length lysyl oxidase (from UniProt P28300 22-417) (enzyme)”, the Kd in series [4] worked out at 338 nM; in series [2] it was 49 nM; in series [5], 304 nM; in series [6], 26 nM.

For “Full-length human fibulin-5 (residues 42–448) (from UniProt Q9UBX5 42-448) (natural protein)”, in series [1], the Kd is 64 nM, the koff was found to be 0.0013 s⁻¹ and the kon was determined as 44000 M⁻¹ s⁻¹.

B1: Fibulin-5 domain pair F5-E6FC (residues 288–448) (domain or fragment)
chain: DINECEHRNHTCNLQQTCYNLQGGFKCIDPIRCEEPYLRISDNRCMCPAENPGCRDQPFTILYRDMDVVSGRSVPADIFQMQATTRYPGAYYIFQIKSGNEGREFYMRQTGPISATLVMTRPIKGPREIQLDLEMITVNTVINFRGSSVIRLRIYVSQYPF
modifications: biotinylated where it was the soluble ligand of a solid phase assay
As to B1, the binding result in series [7], in [8] and in [9] was “binds” each time. Moreover, in series [10], the Kd is 965 nM.

B2: N-terminal four domains of fibulin-4 (residues 26–217) (domain or fragment)
chain: SPQDSEEPDSYTECTDGYEWDPDSQHCRDVNECLTIPEACKGEMKCINHYGGYLCLPRSAAVINDLHGEGPPPPVPPAQHPNPCPPGYEPDDQDSCVDVDECAQALHDCRPSQDCHNLPGSYQCTCPDGYRKIGPECVDIDECRYRYCQHRCVNLPGSFRCQCEPGFQLGPNNRSCVDVNECDMGAPCEQRCFNSYGTFLCRCHQGYELHRDGFSCS
modifications: biotinylated where it was the soluble ligand of a solid phase assay
As for B2, the “stoichiometry N” value in series [11] stood at 2.

B3: Fibulin-5 domain pair F5-E1+2 (residues 42–167) (domain or fragment)
chain: DIDECRTIPEACRGDMMCVNQNGGYLCIPRTNPVYRGPYSNPYSTPYSGPYPAAAPPLSAPNYPTISRPLICRFGYQMDESNQCVDVDECATDSHQCNPTQICINTEGGYTCSCTDGYWLLEGQCL
modifications: biotinylated where it was the soluble ligand of a solid phase assay
Regarding B3, the binding result in series [7], in series [8] and in series [9] was “binds” each time. Besides, in series [10], the Kd was 332 nM.

B4: Full-length human fibulin-4 (residues 26–418) (natural protein)
chain: SPQDSEEPDSYTECTDGYEWDPDSQHCRDVNECLTIPEACKGEMKCINHYGGYLCLPRSAAVINDLHGEGPPPPVPPAQHPNPCPPGYEPDDQDSCVDVDECAQALHDCRPSQDCHNLPGSYQCTCPDGYRKIGPECVDIDECRYRYCQHRCVNLPGSFRCQCEPGFQLGPNNRSCVDVNECDMGAPCEQRCFNSYGTFLCRCHQGYELHRDGFSCSDIDECSYSSYLCQYRCINEPGRFSCHCPQGYQLLATRLCQDIDECESGAHQCSEAQTCVNFHGGYRCVDTNRCVEPYIQVSENRCLCPASNPLCREQPSSIVHRYMTITSERSVPADVFQIQATSVYPGAYNAFQIRAGNSQGDFYIRQINNVSAMLVLARPVTGPREYVLDLEMVTMNSLMSYRASSVLRLTVFVGAYTF
modifications: biotinylated (sulfosuccinimidyl 2-(biotinamido)-ethyl-1,3-dithiopropionate) where it was the soluble ligand of a solid phase assay
Take B4: in series [11], the “stoichiometry N” value was 2.

These data come from publication PMC2782046 (The Journal of Biological Chemistry, 2009).
